Residue numbers refer to the chain shown, from its start.
Biological target: recombinant his-tagged and biotinylated CD3ε protein (AcroBiosystems, CDE-H8223), human (human) (UniProt P07766)
Test: BLI (Octet RED96), biotinylated his-tagged CD3ε on SSA biosensor, bispecific as analyte 200 to 3.125 nM

recombinant his-tagged and biotinylated CD3ε protein (AcroBiosystems, CDE-H8223), human (human), sequence (P07766 23-126 limits assumed): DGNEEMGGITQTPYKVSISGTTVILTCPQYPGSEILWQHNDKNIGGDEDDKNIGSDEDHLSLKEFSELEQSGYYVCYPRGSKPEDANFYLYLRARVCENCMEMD

B1: monovalent bispecific antibody comprising anti-CD3 scFv v619_HLh (SEQ ID NO: 28) and a Her2-binding domain (bispecific antibody, part only; not given: Her2 arm and Fc, not shown: another chain or arm of the molecule; a dimerising Fc or GST; small tags and cut ends)
scFv: EVQLVESGGGLVQPGGSLKLSCAASGFTFSTYAMNWVRQASGKGLEWVGRIRSKYNNYATYYADSVKDRFTISRDDSKNTAYLQMNSLKTEDTAVYYCVRHGNFGNSYVSWWAYWGQGTLVTVSSGGGGSGGGGSGGGGSQTVVTQEPSLTVSPGGTVTLTCGSSTGAVTTSNYVNWVQQKPGQAPRGLIGGTNKRAPGTPARFSGSLIGGKAALTLSGAQPEDEAEYYCVLWYSNRWVFGGGTKLTVL
For B1, which Kd is on record?
The Kd was 1.66 to 5.64 nM.

B2: monovalent bispecific antibody comprising anti-CD3 scFv v619-HLh-CC4 (SEQ ID NO: 32) and a Her2-binding domain (bispecific antibody, part only; not given: Her2 arm and Fc, not shown: another chain or arm of the molecule; a dimerising Fc or GST; small tags and cut ends)
scFv: B1 scFv with W112F, Q117C, Q184C
modifications: Engineered VH-VL disulfide (Cys at VH 117 and VL 44 of the domains) within the scFv
For B2, which Kd is on record?
Its Kd is 11 nM.
